Source: patent US20230054634A1 (INSTYTUT BIOLOGII DO WIADCZALNEJ IM MARCELEGO NENCKIEGO …, published 2023)
Where no end group is shown, it is not given here. The star is where a group is joined. Biotin = O=C1N[C@H]2[C@H](CS[C@H]2CCCCC(=O)*)N1

B1: G22 peptide (peptide)
peptide: RFLRIQRLFPPVPQ
B2: G15 peptide (peptide)
peptide: Biotin-ADVRILNWSSWSEA
B3: G21 peptide (peptide)
peptide: VLGFLFKRFLRIQR
B4: G3 peptide (peptide)
peptide: Biotin-IERFNPPSNVTVRC
B5: G16 peptide (peptide)
peptide: Biotin-WSSWSEAIEFGSDD
B6: G5 peptide (peptide)
peptide: NTTHCLVRWKQPRT
B7: G6 peptide (peptide)
peptide: RWKQPRTYQKLSYL
B8: G14 peptide (peptide)
peptide: Biotin-HSVKIRAADVRILN
B9: G25 peptide (peptide)
peptide: Biotin-NHEVEDEIIWEEFT
B10: G7 C-terminal (peptide)
peptide: Biotin-DFQYQLD
notes: also called C-terminal (DFQYQLD); short variant of G7
B11: G7 central portion (peptide)
peptide: Biotin-LSYLDFQ
notes: also called central (LSYLDFQ); short variant of G7
B12: G7 N-terminal (peptide)
peptide: Biotin-YQKLSYL
notes: also called N-terminal (YQKLSYL); short variant of G7
B13: G7 variant (A10) (peptide)
peptide: YQKLSYLDFAYQLD
B14: G7 variant (A12) (peptide)
peptide: YQKLSYLDFQYALD
notes: ELISA as for the biotin-labelled peptides; also called Al2
B15: G7 variant (A11) (peptide)
peptide: YQKLSYLDFQAQLD
notes: ELISA as for the biotin-labelled peptides
B16: G7 variant (A14) (peptide)
peptide: YQKLSYLDFQYQLA
notes: as for B15
B17: G7 variant (A13) (peptide)
peptide: YQKLSYLDFQYQAD
notes: ELISA as for the biotin-labelled peptides; also called Al3
B18: G7 variant (A16) (peptide)
peptide: KQPRTYQKLSYLDFQYQLD
notes: ELISA as for the biotin-labelled peptides; also called W2
B19: G7K15 (peptide)
peptide: YQKLSYLDFQYQKDK
B20: G7K-1 (peptide)
peptide: KYQKLSYLDFQYQLD
notes: also called G7K-1 variant
B21: G7K13 (peptide)
peptide: YQKLSYLDFQYQKD
B22: G7K11 (peptide)
peptide: YQKLSYLDFQKQLD
B23: G7K2 (peptide)
peptide: YKKLSYLDFQYQLD
notes: also called G7 variant with lysine in position 2

molecular target: T1, recombinant human GM-CSF protein, Myc-tagged/His-tagged (human, UniProt P04141 18-144); test: SPR (BIAcore 3000), GM-CSF immobilised, peptide injected
T1 construct: also called Granulocyte Macrophage Colony Stimulating Factor; CSF2; not shown: Myc tag and His tag from the expression vector
T1 sequence (P04141 18-144): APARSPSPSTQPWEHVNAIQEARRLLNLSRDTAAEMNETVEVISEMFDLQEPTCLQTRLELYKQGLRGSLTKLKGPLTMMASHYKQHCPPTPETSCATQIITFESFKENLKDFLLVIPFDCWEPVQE

Q: Does B1 bind?
A: Result: binds

Q: Does B2 bind?
A: Result: binds

Q: Does B3 bind?
A: Result: binds

Q: Does B4 bind?
A: Result: binds

Q: Does B5 bind?
A: Result: binds

Q: Does B6 bind?
A: Result: binds

Q: Does B7 bind?
A: Result: binds

molecular target: T1, recombinant human GM-CSF protein, …; test: ELISA, GM-CSF coated, biotin-labelled peptide, anti-biotin detection
Description: (§1) Next, unbound proteins were washed out, then the wells were blocked with 5% BSA (bovine serum albumin) in saline and peptides labeled with N-terminal biotin (purchased from GenScript) were added. […] HRP catalyzes the conversion of chromogenic substrates into colored products. The amount of bound peptide was proportional to the amount of the colored product, and it was measured using a spectrophotometer.

Q: Does B8 bind?
A: Result: binds

Q: Does B9 bind?
A: Result: binds

molecular target: T1, recombinant human GM-CSF protein, …; test: ELISA, GM-CSF coated, biotin-labelled peptide
Description: as §1
(SEQ ID NO: 1). […] These peptides, labeled with a N-terminal biotin, were purchased from GenScript.

Q: Does B10 bind?
A: Result: no binding

Q: Does B11 bind?
A: Result: no binding

Q: Does B12 bind?
A: Result: no binding

molecular target: T1, recombinant human GM-CSF protein, …; test: ELISA, GM-CSF coated
Description: as §1

Q: Does B13 bind?
A: Result: binds

Q: Does B14 bind?
A: Result: binds

Q: Does B15 bind?
A: Result: binds

Q: Does B16 bind?
A: Result: binds

Q: Does B17 bind?
A: Result: binds

Q: Does B18 bind?
A: Result: binds

molecular target: T1, recombinant human GM-CSF protein, …; test: ELISA on GM-CSF, relative to G7

Q: With B19 as the binder, how does the Relative binding read?
A: The Relative binding was 60.

Q: With B20 as the binder, how does the Relative binding read?
A: Its Relative binding is 95.

Q: With B21 as the binder, how does the Relative binding read?
A: Its Relative binding is 108.

Q: With B22 as the binder, how does the Relative binding read?
A: Its Relative binding is 108.

Q: How did the Relative binding turn out when B23 was run?
A: The Relative binding was 2.
